US20200377597A1 (SUNSHINE GUOJIAN PHARMACEUTICAL SHANGHAI CO LT, published 2020)

T1: ICOS-hFc (UniProt Q9Y6W8 21-141)
T1 construct: Bought reagent; construct not described; not shown: hFc of a bought product
T1 sequence (looked up): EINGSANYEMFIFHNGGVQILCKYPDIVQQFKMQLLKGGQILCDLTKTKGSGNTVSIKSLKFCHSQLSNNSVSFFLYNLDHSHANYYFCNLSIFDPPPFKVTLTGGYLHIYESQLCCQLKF


What was measured:
[1] = target: T2, monovalent human PD-1 (purchased from Sino Biological Inc.) (human, UniProt Q15116 25-167); assay: SPR Biacore T200; antibody captured on Protein A/G, monovalent human PD-1 as analyte
T2 construct: Bought reagent
Description: The first method was as follows: A CM5 sensor chip (GE healthcare) was activated by the Amine Coupling Kit (GE healthcare) and the Protein A/G fusion protein (Thermo Pierce) was immobilized on the chip with an amount of 2000 RU. FC3 (Flow cell 3) was a reference channel, and FC4 (Flow cell 4) was a sample channel.

human PD-1 = human PD-1 (human, UniProt Q15116 25-288); assay: cell-based or functional assay
human PD-1-hFc = target: T3, human PD-1-hFc (human, UniProt Q15116 25-170, biotin-labelled with EZ-Link Sulfo-NHS-Biotin in the second SPR method); assay: SPR Biacore T200; biotinylated PD-1-hFc on SA chip, antibody as analyte
T3 construct: extracellular domain; also called PD-1-hFc antigen; PD-1-hFc fusion protein; not shown: Fc region of human IgG1
Method: The second determination method was as follows: PD-1-hFc in Example 1 was biotin-labelled using EZ-Link™ Sulfo-NHS-Biotin (Thermo Fisher Scientific), and the specific operation was carried out according to the instructions provided by the manufacturer. After labeling, the excess biotin labeling reagent was removed by dialysis; the aforementioned biotinylated PD-1-hFc fusion protein was immobilized on a chip using Sensor chip SA (GE healthcare). FC3 (Flow cell 3) was a reference channel, and FC4 (Flow cell 4) was a sample channel.

CD28-hFc = target: T4, CD28-hFc (UniProt P10747 19-152); assay: ELISA, plate coated with CD28-hFc at 2 ug/ml, detection with HRP goat anti-human Fab, OD450
T4 construct: Bought reagent; construct not described; not shown: hFc of a bought product
Method: (§1) The protein molecules such as CD28, CTLA-4, and ICOS belong to the same family as PD-1, and the sequences have homology. […] Each well was added with 200 μl of coating solution containing 1% BSA, and blocked at room temperature for 4 hours, then patted dry, and stored in a refrigerator at -20° C. until use. […] 100 μl of HRP-labeled goat anti-human Fab antibody (purchased from Sigma) diluted 1:5000 with PBST was added and incubated at room temperature for 1 hour; washed 3 times with PBST and patted dry. 100 μl of chromogenic solution (ELISA chromogenic solution A and chromogenic solution B were mixed in a volume ratio of 1:1 before use) was added to each well, then 100 μl of 2M H₂SO₄ stop solution was added to each well to stop the reaction. The OD value of each well was immediately measured at a wavelength of 450 nm using a microplate reader (Molecular Device).

ICOS-hFc = target: T1, ICOS-hFc; assay: ELISA, plate coated with ICOS-hFc at 2 ug/ml, detection with HRP goat anti-human Fab, OD450
Method: as §1

T3 sequence (Q15116 25-170): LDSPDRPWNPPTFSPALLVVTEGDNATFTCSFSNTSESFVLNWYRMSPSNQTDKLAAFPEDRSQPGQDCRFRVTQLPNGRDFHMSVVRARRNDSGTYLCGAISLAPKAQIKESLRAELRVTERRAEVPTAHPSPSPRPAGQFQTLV
Chain of human PD-1 (Q15116 25-288): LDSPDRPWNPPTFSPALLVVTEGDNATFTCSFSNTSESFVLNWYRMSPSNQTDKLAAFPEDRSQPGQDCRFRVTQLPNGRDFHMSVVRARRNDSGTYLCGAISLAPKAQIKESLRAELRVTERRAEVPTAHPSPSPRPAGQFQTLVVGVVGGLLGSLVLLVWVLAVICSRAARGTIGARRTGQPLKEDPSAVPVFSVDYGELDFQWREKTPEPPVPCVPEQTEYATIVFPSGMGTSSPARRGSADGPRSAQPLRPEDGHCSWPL
T2 sequence (Q15116 25-167 limits assumed): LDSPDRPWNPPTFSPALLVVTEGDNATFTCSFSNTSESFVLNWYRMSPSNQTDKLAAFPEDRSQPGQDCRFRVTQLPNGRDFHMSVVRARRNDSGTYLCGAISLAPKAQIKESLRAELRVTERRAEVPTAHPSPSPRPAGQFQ

Kd [1] | koff [1] | kon [1] | Cell proliferation (FIG. 3), MLR EC50 (human PD-1) | IFN-γ secretion (FIG. 2), MLR EC50 (human PD-1) | IL-2 secretion (FIG. 1), MLR EC50 (human PD-1) | Kd (human PD-1-hFc) | koff (human PD-1-hFc) | kon (human PD-1-hFc) | Binder | binding result (CD28-hFc) | binding result (ICOS-hFc)
0.231 nM | 4.14e-05 s⁻¹ | 179000 M⁻¹ s⁻¹ | 0.00669 µg/mL | 0.0254 µg/mL | 0.00995 µg/mL |  |  |  | mAb1-25-Chimeric (antibody, human IgG4 S228P, kappa, V domains shown, Murine variable regions spliced to human IgG4 and Kappa constant regions; expressed in HEK293; also called chimeric antibody of murine antibody No. 1-25) VH: EVKLVESGGDLVKPGGSLKLSCVASGFAFSSYDMSWVRQTPEKRLEWVATISGGGRYTYYPDTVKGRFTISRDNARNTHYLQMSSLRSEDTALYFCASPYGGYFDVWGAGTTVTVSS VL: DIVLTQSPATLSVTPGARVSLSCRASQSISNFLHWYQQKSHESPRLLIKYASQSISGIPSRFSGSGSGTDFTLSISSVETEDFGMYFCQQSNSWPHTFGAGTKLELKR |  | 
4.28 nM | 0.000117 s⁻¹ | 27300 M⁻¹ s⁻¹ | 0.0172 µg/mL | 0.0557 µg/mL | 0.0165 µg/mL | 0.0408 nM | 3.12e-05 s⁻¹ | 764000 M⁻¹ s⁻¹ | mAb1-15-Humanized (antibody, human IgG4 S228P, kappa, V domains shown, Human IgG4/Kappa, expressed in HEK293, purified on Protein A; also called humanized antibody No. 1-15) VH: EVQLVESGGGLVQPGGSLRLSCAASGFTFSSYDMSWVRQAPGKRLEWVATISGGGRYTYYPDSVKGRFTISRDNAKNSLYLQMNSLRAEDTAVYYCANRYDVDWFAYWGQGTLVTVSS VL: EIVLTQSPATLSLSPGERATLSCRASQSISNNLHWYQQKPGQAPRLLIKYASQSISGIPARFSGSGSGTDFTLTISSLEPEDFAVYFCQQSNSWPLTFGQGTKVEIKR |  | 

Second part, the binder before the results:

Binder | Kd [1] | koff [1] | kon [1] | Cell proliferation (FIG. 3), MLR EC50 (human PD-1) | IFN-γ secretion (FIG. 2), MLR EC50 (human PD-1) | IL-2 secretion (FIG. 1), MLR EC50 (human PD-1) | Kd (human PD-1-hFc) | koff (human PD-1-hFc) | kon (human PD-1-hFc) | binding result (CD28-hFc) | binding result (ICOS-hFc)
mAb1-15-Chimeric (antibody, human IgG4 S228P, kappa, V domains shown, Murine variable regions spliced to human IgG4 and Kappa constant regions; expressed in HEK293; also called chimeric antibody of murine antibody No. 1-15) VH: EVNLVESGGGLVKPGGSLKLSCAASGFTFSSYDMSWVRQTPEKRLEWVATISGGGRYTYYPDSVKGRFTISRDNAKNNLYLQMSSLRSEDTALYYCANRYDVDWFAYWGQGTLVTVSA VL: DIVLTQSPATLSVTPGDSVSLSCRASQSISNNLHWYQQKSHESPRLLIKYASQSISGIPSRFSGSGSGTDFTLSINSVETEDFGMYFCQQSNSWPLTFGAGTKLELNR | 2.34 nM | 0.000148 s⁻¹ | 62900 M⁻¹ s⁻¹ | 0.0146 µg/mL | 0.0284 µg/mL | 0.0236 µg/mL |  |  |  |  | 
mAb1-25-Humanized (antibody, human IgG4 S228P, kappa, V domains shown, Human IgG4/Kappa, expressed in HEK293E, purified on Protein A; also called humanized antibody No. 1-25) VH: EVKLVESGGGLVQPGGSLRLSCAASGFAFSSYDMSWVRQAPGKRLEWVATISGGGRYTYYPDTVKGRFTISRDNAKNSHYLQMNSLRAEDTAVYFCASPYGGYFDVWGQGTLVTVSS VL: EIVLTQSPATLSLSPGERATLSCRASQSISNFLHWYQQKPGQAPRLLIKYASQSISGIPARFSGSGSGTDFTLTISSLEPEDFAVYFCQQSNSWPHTFGQGTKVEIKR |  |  |  |  |  |  |  |  |  | no binding (tested: log 3.6 (about 4000 ng/ml)) | no binding (tested: log 3.6 (about 4000 ng/ml))
